In patent US10618965 (dated 2020):
Substitutions are numbered along the chain they refer to. Read-outs that look alike come from different tables or passages of the source. Values belong to the binder of their own block, whether it stands above or below them.

Key:
[1] = target: human FcRn (with beta2-microglobulin) (human); assay: SPR, pH 7.0
[2] = target: human FcRn (with beta2-microglobulin) (human); assay: SPR, pH 7.0; remark: listed apart in the source
[3] = target: human FcRn (with beta2-microglobulin) (human); assay: SPR, pH 7.0; remark: listed apart in the source
human IL-6 receptor [4] = target: T1, human IL-6 receptor (human); assay: SPR, 3 uM CaCl2, 37C
T1 chain: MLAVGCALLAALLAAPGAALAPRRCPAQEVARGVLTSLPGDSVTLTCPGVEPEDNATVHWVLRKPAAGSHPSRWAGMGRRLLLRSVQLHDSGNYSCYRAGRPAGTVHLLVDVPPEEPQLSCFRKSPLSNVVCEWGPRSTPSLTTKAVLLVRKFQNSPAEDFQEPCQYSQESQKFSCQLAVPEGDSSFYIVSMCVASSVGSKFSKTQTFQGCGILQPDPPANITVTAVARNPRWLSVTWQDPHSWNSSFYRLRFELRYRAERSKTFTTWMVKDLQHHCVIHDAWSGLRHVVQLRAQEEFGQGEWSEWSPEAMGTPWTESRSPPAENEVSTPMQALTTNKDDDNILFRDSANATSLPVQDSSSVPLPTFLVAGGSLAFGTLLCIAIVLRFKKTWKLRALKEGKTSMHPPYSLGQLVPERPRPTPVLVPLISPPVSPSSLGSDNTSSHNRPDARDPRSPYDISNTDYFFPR

human IL-6 receptor [5] = target: T1, human IL-6 receptor; assay: SPR, 3 uM CaCl2, 37C
human FcgRIa [6] = target: human FcgRIa (human); assay: SPR
human FcgRIIIa(V) [7] = target: human FcgRIIIa(V) (human); assay: SPR
human FcgRIIa(R) [8] = target: T2, human FcgRIIa(R) (human); assay: SPR
T2 chain: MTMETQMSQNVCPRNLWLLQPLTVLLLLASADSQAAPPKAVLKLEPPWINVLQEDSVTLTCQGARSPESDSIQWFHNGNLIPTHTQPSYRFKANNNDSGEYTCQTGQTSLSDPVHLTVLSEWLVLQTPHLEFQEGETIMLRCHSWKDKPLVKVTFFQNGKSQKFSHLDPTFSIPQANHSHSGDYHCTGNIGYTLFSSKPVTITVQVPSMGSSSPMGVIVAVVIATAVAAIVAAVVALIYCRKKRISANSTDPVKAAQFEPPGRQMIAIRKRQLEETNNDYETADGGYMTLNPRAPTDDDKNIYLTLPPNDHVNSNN

human FcgRIIa(R) [9] = target: T2, human FcgRIIa(R); assay: SPR
human FcgRIIa(H) [10] = target: T3, human FcgRIIa(H) (human); assay: SPR
T3 chain: T2 chain

human FcgRIIIa(V) [11] = target: human FcgRIIIa(V) (human); assay: SPR; remark: listed apart in the source
human FcgRIIIa(V) [12] = target: human FcgRIIIa(V) (human); assay: SPR; remark: listed apart in the source
human FcgRIa [13] = target: human FcgRIa (human); assay: SPR; remark: listed apart in the source
human FcgRIIa(H) [14] = target: T3, human FcgRIIa(H); assay: SPR
human FcgRIIa(H) [15] = target: T3, human FcgRIIa(H); assay: SPR
human FcgRIIb [16] = target: T4, human FcgRIIb (human); assay: SPR
T4 chain: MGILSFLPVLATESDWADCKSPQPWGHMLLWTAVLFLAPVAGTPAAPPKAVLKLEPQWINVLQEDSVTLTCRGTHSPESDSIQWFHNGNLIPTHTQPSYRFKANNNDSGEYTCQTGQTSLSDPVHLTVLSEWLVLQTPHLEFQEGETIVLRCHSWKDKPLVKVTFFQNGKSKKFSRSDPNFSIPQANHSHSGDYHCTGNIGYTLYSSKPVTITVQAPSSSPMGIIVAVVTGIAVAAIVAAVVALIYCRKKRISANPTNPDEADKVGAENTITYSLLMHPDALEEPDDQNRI

human FcgRIIb [17] = target: T4, human FcgRIIb; assay: SPR
human FcgRIIb [18] = target: T4, human FcgRIIb; assay: SPR
human FcgRIIb [19] = target: T4, human FcgRIIb; assay: SPR
human FcgRIIb [20] = target: T4, human FcgRIIb; assay: SPR
human FcgRIIa(R) [21] = target: T2, human FcgRIIa(R); assay: SPR
human FcgRIa [22] = target: human FcgRIa (human); assay: SPR; remark: listed apart in the source
[23] = target: human FcRn (with beta2-microglobulin) (human); assay: SPR, pH 7.0; remark: listed apart in the source

Chain of human FcgRIIIa(V) (human) (chain, as listed by the source): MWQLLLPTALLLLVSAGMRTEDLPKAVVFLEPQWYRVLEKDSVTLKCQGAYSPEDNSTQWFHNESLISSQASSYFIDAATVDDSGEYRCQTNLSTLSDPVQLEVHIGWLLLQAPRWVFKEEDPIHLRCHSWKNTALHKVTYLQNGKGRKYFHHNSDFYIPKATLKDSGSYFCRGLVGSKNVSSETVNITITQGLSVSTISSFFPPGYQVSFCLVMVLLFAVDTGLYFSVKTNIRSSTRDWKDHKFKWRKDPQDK
Chain of human FcgRIa (human) (chain, as listed by the source): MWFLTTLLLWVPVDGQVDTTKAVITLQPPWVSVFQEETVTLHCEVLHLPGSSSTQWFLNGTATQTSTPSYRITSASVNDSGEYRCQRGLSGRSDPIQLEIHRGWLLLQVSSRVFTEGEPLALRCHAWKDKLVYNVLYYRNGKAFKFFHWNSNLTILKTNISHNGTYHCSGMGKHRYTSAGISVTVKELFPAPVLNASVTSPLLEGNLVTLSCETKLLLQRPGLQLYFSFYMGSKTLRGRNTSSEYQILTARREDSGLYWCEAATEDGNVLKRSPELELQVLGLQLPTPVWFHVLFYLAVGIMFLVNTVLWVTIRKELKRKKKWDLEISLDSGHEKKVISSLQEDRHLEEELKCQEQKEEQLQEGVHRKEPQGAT

B1: F947 (antibody)
chain 1: QVQLQESGPGLVKPSETLSLTCAVSGHSISHDHAWSWVRQPPGEGLEWIGFISYSGITNYNPSLQGRVTISRDNSKNTLYLQMNSLRAEDTAVYYCARSLARTTAMDYWGEGTLVTVSSASTKGPSVFPLAPSSKSTSGGTAALGCLVKDYFPEPVTVSWNSGALTSGVHTFPAVLQSSGLYSLSSVVTVPSSSLGTQTYICNVNHKPSNTKVDKKVEPKSCDKTHTCPPCPAPELLGGPSVFLFPPKPKDVLYISRTPEVTCVVVDVSHEDPEVKFNWYVDGVEVHNAKTKPREEQYNSTYRVVSVLQPLHADWLNGKEYKCKVSNKALPAPIEKTISKAKGQPREPQVYTLPPSRDELTKNQVSLTCLVKGFYPSDIAVEWESNGQPENNYKTTPPVLDSDGSFFLYSKLTVDKSRWQQGNVFSCSVMHEALHYHVTQKSLSLSP
chain 2: not shown
- Kd [1]: 11 nM
- Kd [2]: 11 nM
- Kd [3]: 11 nM

B2: F1326 (antibody)
chain 1: B1 chain 1 with L236A, L237A
chain 2: not shown
- Kd [2]: 11 nM
- Kd [3]: 11 nM

B3: 6RL#9-IgG1 (antibody, V domains shown)
VH: QVQLVQSGAEVKKPGASVKVSCKASGYTFTSYYMHWVRQAPGQGLEWMGIINPSGGSTSYAQKFQGRVTMTRDTSTSTVYMELSSLRSEDTAVYYCARDDPGGGEYYFDYWGQGTLVTVSS
VL: QSVLTQPPSVSGAPGQRVTISCTGSRSNMGAGYDVHWYQLLPGAAPKLLISHNTHRPSGVPDRFSGSKSGASASLAITGLQAEDEADYYCQSHDSSLSAVVFGGGTKLTVLS
- Kd (human IL-6 receptor [4]): ~31000 nM
- Kd (human IL-6 receptor [5]): > 31000 nM

B7: FH4-IgG1 (antibody, V domains shown)
VH: QVQLVQSGAEVKKPGSSVKVSCKASGGTFSSYAISWVRQAPGQGLEWMGGIIPIFGTANYAQKFQGRVTITADESTSTAYMELSSLRSEDTAVYYCARERDYYDSSGYYDAFDIWGQGTMVTVSS
VL: ETTVTQSPSFLSASVGDRVTITCITTTDIDDDMNWFQQEPGKAPKLLISEGNILRPGVPSRFSSSGYGTDFTLTISKLQPEDFATYYCLQSDNLPFTFGQGTKLEIKR
- Kd (human IL-6 receptor [4]): ~34000 nM
- Kd (human IL-6 receptor [5]): > 34000 nM

The next lines start with the values.

- Kd (human FcgRIa [6]): 0.32 nM
- Kd (human FcgRIIIa(V) [7]): 350 nM
- Kd (human FcgRIIa(R) [8]): 1000 nM
- Kd (human FcgRIIa(R) [9]): 1000 nM
- Kd (human FcgRIIa(H) [10]): 670 nM
- Kd (human FcgRIIIa(V) [11]): 350 nM
- Kd (human FcgRIIIa(V) [12]): 350 nM
- Kd (human FcgRIa [13]): 0.32 nM
- Kd (human FcgRIIa(H) [14]): 670 nM
- Kd (human FcgRIIa(H) [15]): 670 nM
- Kd (human FcgRIIb [16]): 2600 nM
- Kd (human FcgRIIb [17]): 5300 nM
- Kd (human FcgRIIb [18]): 5300 nM
- Kd (human FcgRIIb [19]): 2600 nM
- Kd (human FcgRIIb [20]): 2600 nM
- Kd (human FcgRIIa(R) [21]): 1000 nM
- Kd (human FcgRIa [22]): 0.32 nM
B4: IL6R-G1d/IL6R-L (IgG1) (antibody)
chain 1: not shown
chain 2: DIQMTQSPSSLSASVGDRVTITCRASQDISSYLNWYQQKPGKAPKLLIYYTSRLHSGVPSRFSGSGSGTDFTFTISSLQPEDIATYYCQQGNTLPYTFGQGTKVEIK

- Kd (human FcgRIIIa(V) [7]): 330 nM
- Kd (human FcgRIIa(R) [9]): 1100 nM
- Kd (human FcgRIIIa(V) [11]): 330 nM
- Kd (human FcgRIa [13]): 0.42 nM
- Kd (human FcgRIIa(H) [14]): 770 nM
- Kd (human FcgRIIa(H) [15]): 770 nM
- Kd (human FcgRIIb [16]): 3100 nM
- Kd (human FcgRIIb [19]): 3100 nM
- Kd (human FcgRIIa(R) [21]): 1100 nM
- Kd (human FcgRIa [22]): 0.42 nM
B5: IL6R-B3/IL6R-L (antibody)
chain 1: not shown
chain 2: B4 chain 2

- Kd [23]: 140 nM
B6: IgG4-F890 (antibody)
chain 1: QVQLQESGPGLVKPSETLSLTCAVSGHSISHDHAWSWVRQPPGEGLEWIGFISYSGITNYNPSLQGRVTISRDNSKNTLYLQMNSLRAEDTAVYYCARSLARTTAMDYWGEGTLVTVSSASTKGPSVFPLAPCSRSTSESTAALGCLVKDYFPEPVTVSWNSGALTSGVHTFPAVLQSSGLYSLSSVVTVPSSSLGTKTYTCNVDHKPSNTKVDKRVESKYGPPCPPCPAPEFLGGPSVFLFPPKPKDTLYISRTPEVTCVVVDVSQEDPEVQFNWYVDGVEVHNAKTKPREEQFNSTYRVVSVLTVLHQDWLNGKEYKCKVSNKGLPSSIEKTISKAKGQPREPQVYTLPPSQEEMTKNQVSLTCLVKGFYPSDIAVEWESNGQPENNYKTTPPVLDSDGSFFLYSRLTVDKSRWQEGNVFSCSVMHEALHYHVTQKSLSLSL
chain 2: not shown
